Results: the nanobody polyreactivity screen of Harvey et al. (2022)

Test: yeast display, Sf9 membrane polyspecificity reagent, FACS + sequencing; frameworks hold sequencing errors
How it was run: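 Polyreactivity labels are assigned by the sorting gate from which each nanobody was recovered. The gates were low and high (top ~1%), set on anti-HA fluorescence for expression and streptavidin fluorescence for reagent binding. Before sorting, galactose-induced (36–48 hours) yeast display cells were stained for 1 hour at 4 °C with 10% biotinylated, detergent-solubilized Sf9 membrane reagent.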

Sequence	polyreactivity (PSR sort gate)
QVQLVESAGGLVQAGGSLRLSCAASGSTLSWNTMGWYRQAPGKERELVARINWGGSSTYYADSVKGRFTISRDNAKNTVYLQMNSLKPEDTAVFYCNARYLSSAYDYWGQGTQVTVSS	high polyreactivity
QVQLVESAGGLVQAGGSLRLSCAASGSTLYKYAMGWYRQAPGKETEMVATLTRTDSTNYADSVKGRFTISRDNAKNTVYIQMNSLKPEDTAVYYCAARRVYYNGYYVNVGSFYYWGQGTQVTVSS	low polyreactivity
QVQLVESAGGLVQAGGSLRLSCAASGYIFVPYAMGWYRQAPGKERELVASITWSGGSTYYADSVKGRFTISRDNAKNTVYLQMNSLKPEDTAVYYCAAANYTYASRWYDYWGQGTQVTVSS	low polyreactivity
QVQLVESAGGLVQAGGSLRLSCAASGYTFPFYTMGWYRQAPGKERELVAAITDTGGGTYYADSVKGRFTISRDNAKNTVYLQMNSLNPEDTAVYYCAKPTSYRGYYSWGQGTQVTVSS	high polyreactivity
QVQLVESAGGLVQAGGSLRLSCAATGSIFHPYAMGWYRQAPGKERELVASITSSGGSTYYADSVKVRFTISRENAKNTVYLEMNSLKPEDTAVYYCKAQFLVYFFWYSTTAYIMYYWGQGTQVTVSS	low polyreactivity
QVQLVESAGGLVQAGGSLRLSCAAYGIIFKIYAMGWYRQAPGKERELVAAITRSGTRTYYADSVKGRFTISRDNEKNTVYFQMNSLKPEDTAGYYCNAYTSLAYDLDYWGQGTQVTVSS	high polyreactivity
QVQLVESAGGLVQAGGSLRLSCAAYGRTLAKYAMGWYRQAPGKERELVAAITRDGSTNYADSVKGRFTISRDNAKNTVYLQMNSLKPEDTAVYYCATRSYWYRVYYWGQGTQVTVSS	high polyreactivity
QVQLVESAGGLVQAGGSLRLSCAAYGSIFGFYAMGWYRQAPGKERELVAAIDSGDSTNYADSVKGRFTISRDNAKNTVYLQMNSLKPEDTAVYYCNAEAWWYFWFDYWGQGTQVTVSS	low polyreactivity
QVQLVESAGGLVQAGGSLRLSCADSGRLFYLYARGWYRQAPGKERELVAAISSTGRTTYADSVKGRFTISRDNAKNTVYLQMNSLKPEDTAVYYGAADFRLSGSYGGFDYWGQGTQVTVSS	low polyreactivity
QVQLVESAGGLVQAGGSLRLSCADSGRTFAYNVIGWYRQAPGKERELVAGISFGAGTTYYADSVKGRFTISRDNAKNTVYLQMNSLKPEDTAVYYCATRRRGTRYPRGYDYWGQGTQVTVSS	high polyreactivity
QVQLVESAGGLVQAGGSLRLSCGASGRIYSLYAMGWYRQAPGKERELVAAISWGAGSTYYADSVKGRFTISRDNAKNTVYLQMNSLKREDTAVYYCATGRRYYYPYSSYLKYGYWGQGTQVTVSS	high polyreactivity
QVQLVESAGGLVQAGGSLRLSFAASGSIFYSYAMGSYRKAAGKDRELVADITSSGGSTYYADSVKGRFTISRDNAKNTDYLQMNSLKREDTAVYYCAASSPAFYGLRYNYWGQGTQVTVSS	low polyreactivity
QVQLVESAGGLVQAGGSLRLSGAASGSTFHNYAVGWSRQAPGKERELVGGISVRGGGTYYADSVKGRFTISRDNAKNTVYLQMNSLKPEDTAVYYCAQRSRYYYRYDYWGQGTQVTVSS	high polyreactivity
QVQLVESAGGLVQAGGSLRVRCAASGGIFSGNDMGWYRQAPGKERELVATITSDGSTNYADSVKGRFTISRDNAKNTVYLQMNSLKPEDTAVYYCAADGLYWWMYYWGQGTQVTVSS	low polyreactivity
QVQLVESAGGLVQAGGSLRYSCAASGRTIYRYAMGWYRQAPGKERELVAAINRSTGRTYYADSVKGRFTISRDNAKNTVYLQMTSLNPEDTAVYYCARSDKKYPQASSREDYGYWGQGTQVTVSS	high polyreactivity
QVQLVESAGGLVQAGGSLSLSCAASASTFSSNAMGGYRQAPGKERELVAAITTSGGSTYYADSVKGRFTISRDNAKNTVYLQMNSLIPEDTAVYYCAADLVHAYQWSIFLYGYWGLGTQVTVSS	low polyreactivity
QVQLVESAGGLVQAGGSLSLSCAASGRILDRNGMGWYRQAPGKERELVATITGIADSTYYADSVKGRFTISRDNAKNTVYLQMNSLKPEDTAVYYCAADKYVAEYDYWGQGTQVTVSS	low polyreactivity
QVQLVESAGGLVQAGGSRRLSCAASGRNFPFYAMGWYRQAPGKERELVATISSGDRTNYAVSVKGRFTISRDNAKNTVYLQMNSLKPEDTAVYYCAADFAVKYRKRVRRYSWGHGTQVTVSS	low polyreactivity
QVQLVESAGGLVQAGVRLRLSCAASGRTFVCNAMGSYRQAPGKERELVADITWSGDITYYADSVKGRFTISRDNAKNTVYLQMNSLKPEDTAVYYCAADYHRRLTDYDYWGQGTQVTVSS	low polyreactivity
QVQLVESAGGLVQAGVSLRLSCAASGFTFAQNVMGWYRQAPGKERELVAAISVSGGSTYYADSVKGRFTISRDNAKNTVYLQMNSLKPEDTAVYYCNAVAGVTKRVDLSRSGYWGLGTQVTVSS	high polyreactivity
QVQLVESAGGLVQAGVSLRLSCAASGFTFSPNAMGWYRQPPGKERELVAAIDWSGDRTYYADSVKGRFTISRDNAKNTVYLQMNSLKPEDTAVYYCAKTNFSQSSRYNYDYWGQGTQVTVSS	low polyreactivity
QVQLVESAGGLVQAGVSLRLSCAASGIIFPYYTMGWYRQAPGKERELVARITNGGRTYYADSVKGRFTISRDNAKNTVYLQMNSLKPEDTAVYYCNAGRYYIGGYWGQGTQVTVSS	high polyreactivity
QVQLVESAGGLVQAGVSRRLSFAASGSIFGDYAMGWYRQAPGTERELVATITWIGGSTYYADSVKGRFTISRDNAKNTVYLQMNSLIPEDTAVYYCAATKYVDVKYYYWGQGTQVTLSS	low polyreactivity
QVQLVESAGGLVQEGGILRLICADSGRIVYRYAMGWYRQAPGKERELVAAISRRGGSTYYEDSVKGRFTISRDNAKYTVIFQMNSLKAVDTAVYYFARYHWYYRVSKSDSWGQGTQVPVSS	high polyreactivity
QVQLVESAGGLVQEGGSLRLSCAASGLTFYGNAMGWYRQAPGKERELVAAISSSGGTTSYADSVKGRFTISRDNAKNTVYLQFNSLKPEDTAVYYCAARPSGGYESTRTRDYWGQGTQVTVSS	low polyreactivity
QVQLVESAGGLVQEGGSLRLSCAASGRIFARYAMGWSRQAPGKERELVAAITDSGDNTYYADSVKGRFTISRDNAKNTVYLQMNSLKPEDTAVYYCKAYFLVHYRRLRPYDYWGHGTQVTVSS	low polyreactivity
QVQLVESAGRLVKAGGSLRLSCDASGSIFKGNAMGWYRQEPGKERELVAAISRTGGSTYYADSVKGRFTISRDNAKNTVYLQMNSLKPEDTAVYYCAAYSASTYDSWGQGTQVTVSS	high polyreactivity
QVQLVESARGLVQAGGCLRLSCAASGSTFHQNAMGWSRQAPGKERELVAAITSGGSTYYADSVKGRFTISRDNAKNTGYLQMNSLKPEDTAVYYCNALTHVRSKRWRFRSEHDYWGQGTQVTVSS	high polyreactivity
QVQLVESAVGLVQAGGRLRLSCAASGRIFVFNAMGWYMQAPGKERELVAAITASSTRTYYADSVKGRFTISRDNAKNTVYLQMNSLNPEDPAVYYCARDIRQYILYGRVDYWGQGTQVTVSS	low polyreactivity
QVQLVESAVGLVQAGGSLRLSCAASGRIFYFNAMGWYRQAPGKERELVAAISSSGTTYYADSVKGRFTISRDNAKNTVYLQMNSLKPEDTAVYYCAAGYYGHDPRNRYRYNYWGQGTQVTVSS	high polyreactivity
